For one substance, [35S]GTPγS binding to perdeuterated purified A2AR reconstituted with purified Gs heterotrimer in phospholipid vesicles; reduction of basal activity by inverse agonist ZM241385 and [35S]GTPγS binding to perdeuterated purified A2AR reconstituted with purified Gs heterotrimer in phospholipid vesicles; stimulation by saturating full agonist NECA results are on record in article PMC5650471.

The target in the test is wild-type human ADORA2A adenosine A2A receptor (construct terminated at residue 316, N154Q, C-terminal 8x His and Protein C tags) (human) (UniProt P29274).
Sequence of UniProt P29274 (P29274 1-316 N154Q): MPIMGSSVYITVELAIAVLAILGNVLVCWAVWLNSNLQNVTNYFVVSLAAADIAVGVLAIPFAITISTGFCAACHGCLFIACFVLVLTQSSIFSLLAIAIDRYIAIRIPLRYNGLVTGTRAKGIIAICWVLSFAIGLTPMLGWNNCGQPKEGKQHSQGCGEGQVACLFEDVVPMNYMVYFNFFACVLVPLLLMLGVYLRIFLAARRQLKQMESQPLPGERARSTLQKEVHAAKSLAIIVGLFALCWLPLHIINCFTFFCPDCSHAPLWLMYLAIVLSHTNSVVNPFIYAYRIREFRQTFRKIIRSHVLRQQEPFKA

Take Gs heterotrimer (complex): the [35S]GTPγS binding to perdeuterated purified A2AR reconstituted with purified Gs heterotrimer in phospholipid vesicles; reduction of basal activity by inverse agonist ZM241385 stood at 50% and the [35S]GTPγS binding to perdeuterated purified A2AR reconstituted with purified Gs heterotrimer in phospholipid vesicles; stimulation by saturating full agonist NECA is 8 fold.
